Target: C5a receptor (CD88) on differentiated U937 cells (UniProt P21730)
Experiment: cell-based or functional assay

Chain of C5a receptor (CD88) on differentiated U937 cells (P21730 whole entry): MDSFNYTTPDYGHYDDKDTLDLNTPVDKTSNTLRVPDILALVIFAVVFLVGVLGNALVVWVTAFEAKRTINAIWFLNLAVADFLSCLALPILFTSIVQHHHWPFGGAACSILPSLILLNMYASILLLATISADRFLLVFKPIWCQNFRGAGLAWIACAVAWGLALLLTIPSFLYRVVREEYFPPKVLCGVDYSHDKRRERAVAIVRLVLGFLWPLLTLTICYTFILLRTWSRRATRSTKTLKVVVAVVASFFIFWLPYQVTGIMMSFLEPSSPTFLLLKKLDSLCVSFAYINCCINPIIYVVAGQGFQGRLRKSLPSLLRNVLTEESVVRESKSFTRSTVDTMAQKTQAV

Substance | chemotaxis of U937 cells, maximal effective concentration | chemotactic response of U937 cells
recombinant human C5a (from UniProt P01031 678-751) (ligand) | 1 nM | 
His6-tagged monkey C5a (His6-macC5a) (ligand) |  | 0.8 nM
